Here are results for 2 variants from IntAct's records for PubMed 16234233.

The chains are these.
B1: Acid-sensing ion channel 3 (Rattus norvegicus (Rat)), O35240 (parent)
chain: MKPRSGLEEAQRRQASDIRVFASSCTMHGLGHIFGPGGLTLRRGLWATAVLLSLAAFLYQVAERVRYYGEFHHKTTLDERESHQLTFPAVTLCNINPLRRSRLTPNDLHWAGTALLGLDPAEHAAYLRALGQPPAPPGFMPSPTFDMAQLYARAGHSLEDMLLDCRYRGQPCGPENFTVIFTRMGQCYTFNSGAHGAELLTTPKGGAGNGLEIMLDVQQEEYLPIWKDMEETPFEVGIRVQIHSQDEPPAIDQLGFGAAPGHQTFVSCQQQQLSFLPPPWGDCNTASLDPDDFDPEPSDPLGSPRPRPSPPYSLIGCRLACESRYVARKCGCRMMHMPGNSPVCSPQQYKDCASPALDAMLRKDTCVCPNPCATTRYAKELSMVRIPSRASARYLARKYNRSESYITENVLVLDIFFEALNYEAVEQKAAYEVSELLGDIGGQMGLFIGASLLTILEILDYLCEVFQDRVLGYFWNRRSAQKRSGNTLLQEELNGHRTHVPHLSLGPRPPTTPCAVTKTLSASHRTCYLVTRL
partner: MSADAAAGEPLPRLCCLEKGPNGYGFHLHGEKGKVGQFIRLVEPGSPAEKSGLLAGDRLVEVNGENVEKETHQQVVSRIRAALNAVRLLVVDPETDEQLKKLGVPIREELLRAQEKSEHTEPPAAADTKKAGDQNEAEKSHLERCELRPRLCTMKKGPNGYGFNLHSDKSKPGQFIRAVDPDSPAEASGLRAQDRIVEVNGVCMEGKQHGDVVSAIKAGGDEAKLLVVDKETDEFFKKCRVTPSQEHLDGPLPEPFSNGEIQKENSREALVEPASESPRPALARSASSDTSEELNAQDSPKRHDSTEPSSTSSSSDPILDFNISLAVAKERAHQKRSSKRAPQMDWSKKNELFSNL

In this assay the parent is B1. The note with it: with nhrf1_rat Nherf1, Q9JJ19.
With S523D, the “effect of a mutation on the interaction” value was “increasing interaction”.

Regarding S523G, the “effect of a mutation on the interaction” value was “decreasing interaction”.
